Patent publication US20090180995A1 (NATIONAL UNIVERSITY OF SINGAPORE, published 2009)

T1: hemextin B (Hemachatus haemachatus (African …))
T1 construct: also called peak B
T1 chain: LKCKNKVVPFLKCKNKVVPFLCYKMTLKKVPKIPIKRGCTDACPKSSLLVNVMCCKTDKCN

B1: hemextin AB complex (other)
chain 1: LKCKNKLVPFLSKTCPEGKNLCYKMTMLKMPKIPIKRGCTDACPKSSLLVKVVCCNKDKCN
chain 2: T1 chain
B2: hemextin A (other)
chain: B1 chain 1
notes: also called peak A

Tests used:
[1] = molecular target: plasma kallikrein; assay: cell-based or functional assay
[2] = molecular target: TF-FVIIa complex (human, UniProt P08709 61-466; P13726 33-295); assay: cell-based or functional assay
[3] = molecular target: T1, hemextin B; assay: ITC in phosphate, MOPS and Tris buffers at pH 7.4

Sequence of TF-FVIIa complex (P08709 61-466 limits assumed, chain 1 of 2): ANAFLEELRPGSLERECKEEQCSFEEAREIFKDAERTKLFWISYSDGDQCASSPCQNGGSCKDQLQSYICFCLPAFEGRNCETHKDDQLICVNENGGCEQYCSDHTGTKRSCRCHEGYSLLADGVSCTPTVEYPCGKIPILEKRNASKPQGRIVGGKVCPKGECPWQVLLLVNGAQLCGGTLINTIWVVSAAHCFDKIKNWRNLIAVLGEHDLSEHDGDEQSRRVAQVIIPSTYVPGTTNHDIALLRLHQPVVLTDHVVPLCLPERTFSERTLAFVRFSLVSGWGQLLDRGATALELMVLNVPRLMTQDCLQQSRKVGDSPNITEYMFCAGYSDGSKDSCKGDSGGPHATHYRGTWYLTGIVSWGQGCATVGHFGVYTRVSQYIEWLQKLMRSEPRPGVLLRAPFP
Sequence of TF-FVIIa complex (P13726 33-295 limits assumed, chain 2 of 2): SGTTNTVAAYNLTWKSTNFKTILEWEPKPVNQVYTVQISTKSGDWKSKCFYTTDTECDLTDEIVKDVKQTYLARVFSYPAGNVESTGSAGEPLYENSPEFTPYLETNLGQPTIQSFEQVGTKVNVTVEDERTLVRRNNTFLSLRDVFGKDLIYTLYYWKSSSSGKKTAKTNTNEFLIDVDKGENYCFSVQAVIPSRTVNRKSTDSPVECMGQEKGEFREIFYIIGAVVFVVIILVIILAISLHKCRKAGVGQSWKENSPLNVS

Binder | IC50, inhibition of plasma kallikrein amidolytic activity [1] [µM] | IC50, inhibition of extrinsic tenase activity (FXa formation) [2] [µM] | ΔHbin (binding enthalpy corrected for protonation) [3] [kcal/mol]
B1 | ~5 | 0.1 | –
B2 | – | – | -3.64
